Source: publication PMC1911201 (Molecular Systems Biology, 2007)

Legend:
Experiment in all cases: peptide or protein array
Ykr021w = target: T1, Ykr021w (S. cerevisiae, UniProt P36117 1-915)
T1 sequence (looked up): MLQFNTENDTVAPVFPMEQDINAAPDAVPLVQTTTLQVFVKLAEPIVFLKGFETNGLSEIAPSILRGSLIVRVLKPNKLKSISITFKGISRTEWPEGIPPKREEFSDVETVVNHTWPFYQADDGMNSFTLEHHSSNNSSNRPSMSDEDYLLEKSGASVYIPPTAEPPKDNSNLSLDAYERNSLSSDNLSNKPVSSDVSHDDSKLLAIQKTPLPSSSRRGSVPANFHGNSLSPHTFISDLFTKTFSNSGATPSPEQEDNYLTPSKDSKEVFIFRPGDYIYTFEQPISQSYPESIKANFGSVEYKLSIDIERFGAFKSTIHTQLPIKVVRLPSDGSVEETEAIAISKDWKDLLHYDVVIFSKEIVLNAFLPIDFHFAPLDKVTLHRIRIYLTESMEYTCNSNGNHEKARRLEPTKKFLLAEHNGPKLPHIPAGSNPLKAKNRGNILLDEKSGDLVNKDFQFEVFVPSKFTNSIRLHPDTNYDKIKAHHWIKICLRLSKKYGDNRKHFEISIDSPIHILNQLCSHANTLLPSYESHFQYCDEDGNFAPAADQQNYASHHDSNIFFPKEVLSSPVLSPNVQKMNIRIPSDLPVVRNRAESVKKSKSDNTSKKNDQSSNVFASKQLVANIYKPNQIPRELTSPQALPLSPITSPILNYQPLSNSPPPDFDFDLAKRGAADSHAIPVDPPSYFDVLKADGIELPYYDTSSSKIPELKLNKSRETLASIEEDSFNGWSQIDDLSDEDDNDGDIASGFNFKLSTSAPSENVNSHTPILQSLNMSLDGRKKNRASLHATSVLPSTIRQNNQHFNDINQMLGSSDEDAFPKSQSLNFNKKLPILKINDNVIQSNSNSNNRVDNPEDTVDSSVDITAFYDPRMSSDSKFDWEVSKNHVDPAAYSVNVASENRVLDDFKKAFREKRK

Yjl084c = target: T2, Yjl084c (S. cerevisiae, UniProt P47029 1-1046)
T2 sequence (looked up): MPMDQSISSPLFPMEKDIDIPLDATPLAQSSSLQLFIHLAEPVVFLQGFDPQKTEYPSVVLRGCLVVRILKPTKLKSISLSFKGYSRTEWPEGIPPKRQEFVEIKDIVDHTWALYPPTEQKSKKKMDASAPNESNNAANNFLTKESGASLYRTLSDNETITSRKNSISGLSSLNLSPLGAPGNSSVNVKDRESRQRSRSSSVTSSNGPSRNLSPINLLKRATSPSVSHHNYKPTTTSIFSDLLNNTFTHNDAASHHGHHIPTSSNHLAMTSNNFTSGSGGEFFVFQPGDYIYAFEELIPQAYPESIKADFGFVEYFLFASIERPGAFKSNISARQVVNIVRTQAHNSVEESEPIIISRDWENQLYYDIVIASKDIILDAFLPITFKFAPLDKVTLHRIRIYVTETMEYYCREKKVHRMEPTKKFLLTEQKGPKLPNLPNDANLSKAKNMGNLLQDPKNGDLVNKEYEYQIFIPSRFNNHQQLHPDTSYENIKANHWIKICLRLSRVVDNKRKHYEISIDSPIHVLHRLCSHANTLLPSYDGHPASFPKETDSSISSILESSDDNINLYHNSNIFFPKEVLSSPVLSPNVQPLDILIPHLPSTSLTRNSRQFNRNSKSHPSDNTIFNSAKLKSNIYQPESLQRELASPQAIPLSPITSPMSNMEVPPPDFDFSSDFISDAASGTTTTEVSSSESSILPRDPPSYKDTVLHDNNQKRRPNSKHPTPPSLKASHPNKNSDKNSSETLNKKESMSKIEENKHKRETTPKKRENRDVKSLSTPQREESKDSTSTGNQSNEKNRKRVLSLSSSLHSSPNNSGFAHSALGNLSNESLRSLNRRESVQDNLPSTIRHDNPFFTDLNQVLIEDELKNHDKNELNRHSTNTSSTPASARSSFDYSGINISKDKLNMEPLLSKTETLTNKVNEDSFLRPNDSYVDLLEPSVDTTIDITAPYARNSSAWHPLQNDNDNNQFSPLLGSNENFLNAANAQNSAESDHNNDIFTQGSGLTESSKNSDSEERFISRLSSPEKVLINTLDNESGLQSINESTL

Dis3 = target: T3, Dis3 (S. cerevisiae, UniProt Q08162 1-1001)
T3 sequence (looked up): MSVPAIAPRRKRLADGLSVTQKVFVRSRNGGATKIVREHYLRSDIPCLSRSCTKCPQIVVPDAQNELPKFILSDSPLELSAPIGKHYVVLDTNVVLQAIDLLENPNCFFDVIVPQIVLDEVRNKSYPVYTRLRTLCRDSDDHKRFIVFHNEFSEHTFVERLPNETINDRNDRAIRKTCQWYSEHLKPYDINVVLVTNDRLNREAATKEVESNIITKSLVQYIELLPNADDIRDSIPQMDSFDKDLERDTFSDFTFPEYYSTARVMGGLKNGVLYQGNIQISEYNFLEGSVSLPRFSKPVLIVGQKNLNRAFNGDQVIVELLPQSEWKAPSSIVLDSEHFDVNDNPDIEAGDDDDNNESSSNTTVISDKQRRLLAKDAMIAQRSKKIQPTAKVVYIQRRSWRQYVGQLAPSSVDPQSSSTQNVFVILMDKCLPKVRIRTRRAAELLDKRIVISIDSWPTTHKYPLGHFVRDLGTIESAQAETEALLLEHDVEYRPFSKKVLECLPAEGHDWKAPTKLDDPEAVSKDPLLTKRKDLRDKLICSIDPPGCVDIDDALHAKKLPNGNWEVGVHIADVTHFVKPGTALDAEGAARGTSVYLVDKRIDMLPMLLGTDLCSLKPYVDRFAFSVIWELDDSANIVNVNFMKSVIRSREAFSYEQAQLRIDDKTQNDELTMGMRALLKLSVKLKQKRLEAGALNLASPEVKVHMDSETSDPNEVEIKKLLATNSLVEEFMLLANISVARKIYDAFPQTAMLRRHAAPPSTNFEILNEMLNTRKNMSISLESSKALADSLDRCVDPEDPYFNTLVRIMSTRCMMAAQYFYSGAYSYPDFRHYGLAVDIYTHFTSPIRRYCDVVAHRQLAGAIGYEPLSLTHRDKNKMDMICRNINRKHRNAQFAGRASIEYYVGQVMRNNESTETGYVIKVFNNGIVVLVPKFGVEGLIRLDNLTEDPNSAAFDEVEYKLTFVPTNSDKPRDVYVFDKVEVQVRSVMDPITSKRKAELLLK

Measured: binding result

B1: Rsp5 (enzyme)
chain: not shown
modifications: labeled with AlexaFluor 647 (Microscale Protein Labeling kit)
binds: all assays above
